Patent US20090136527A1
Non-standard residues stand in square brackets, D forms with d. pGlu = O=C1CC[C@@H](C(=O)O)N1

T1: human GnRH receptor (human) (UniProt P30968)
T1 sequence (looked up): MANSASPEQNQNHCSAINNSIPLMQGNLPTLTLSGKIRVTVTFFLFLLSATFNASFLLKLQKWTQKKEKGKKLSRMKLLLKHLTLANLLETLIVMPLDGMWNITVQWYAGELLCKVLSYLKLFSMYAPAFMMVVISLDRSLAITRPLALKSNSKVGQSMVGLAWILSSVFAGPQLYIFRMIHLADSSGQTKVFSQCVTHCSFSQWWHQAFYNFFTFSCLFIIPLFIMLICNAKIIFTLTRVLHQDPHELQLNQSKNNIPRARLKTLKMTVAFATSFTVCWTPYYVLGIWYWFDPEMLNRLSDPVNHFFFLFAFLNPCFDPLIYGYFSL


Experiments:
[1] = target: T1, human GnRH receptor (human); assay: cell-based or functional assay
[2] = target: affinity purified rabbit anti-RI-GnRH antibody fraction eluted with potassium thiocyanate, first fraction (KSCN 1); assay: inhibition ELISA: antibody fraction preincubated with free peptide, binding to coated RI-GnRH

half-maximal effective concentration (EC50) of IP production [1] [nM] | IC50 (read off the curve) [2] [nM] | Binder
1 | 100 | EHWSYGLQPG (pGlu (pyroglutamate) at position 1; C-terminal amide) [chicken GnRH I ([Gln8]GnRH)]
1 |  | [pGlu]HWSHGWYPG-NH2 (SMILES NC(=O)CNC(=O)[C@@H]1CCCN1C(=O)[C@H](Cc1ccc(O)cc1)NC(=O)[C@H](Cc1c[nH]c2ccccc12)NC(=O)CNC(=O)[C@H](Cc1c[nH]cn1)NC(=O)[C@H](CO)NC(=O)[C@H](Cc1c[nH]c2ccccc12)NC(=O)[C@H](Cc1c[nH]cn1)NC(=O)[C@@H]1CCC(=O)N1) [GnRH II ([His5, Trp7, Tyr8]GnRH)]
